These are literature values, as cited in PMC11695321.

Among the targets are IKKα (Homo sapiens) (UniProt O15111); IKKβ (Homo sapiens) (UniProt O14920); NF-κB p50 (Homo sapiens) (UniProt P19838).
Common to all, as to test: SPR

UniProt O14920, sequence (O14920 whole entry): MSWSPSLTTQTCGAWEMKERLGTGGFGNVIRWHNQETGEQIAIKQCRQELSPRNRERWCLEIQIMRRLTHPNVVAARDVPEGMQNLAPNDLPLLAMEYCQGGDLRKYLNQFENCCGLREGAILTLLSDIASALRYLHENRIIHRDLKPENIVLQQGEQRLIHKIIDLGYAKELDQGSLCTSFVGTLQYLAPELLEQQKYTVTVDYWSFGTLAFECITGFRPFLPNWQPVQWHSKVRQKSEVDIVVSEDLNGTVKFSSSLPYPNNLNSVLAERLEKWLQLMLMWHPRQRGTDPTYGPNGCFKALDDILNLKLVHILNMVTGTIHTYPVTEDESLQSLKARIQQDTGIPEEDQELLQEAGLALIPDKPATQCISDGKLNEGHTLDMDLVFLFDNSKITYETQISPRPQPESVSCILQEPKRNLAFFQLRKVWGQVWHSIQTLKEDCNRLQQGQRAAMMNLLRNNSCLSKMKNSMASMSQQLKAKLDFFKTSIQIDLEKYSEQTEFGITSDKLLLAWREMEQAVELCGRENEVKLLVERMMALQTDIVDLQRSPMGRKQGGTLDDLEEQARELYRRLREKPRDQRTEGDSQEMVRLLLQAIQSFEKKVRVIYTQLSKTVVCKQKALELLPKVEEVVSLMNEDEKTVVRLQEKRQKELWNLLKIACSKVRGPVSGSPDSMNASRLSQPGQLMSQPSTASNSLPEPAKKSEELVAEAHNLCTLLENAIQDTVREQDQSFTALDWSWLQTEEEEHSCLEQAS
UniProt P19838, sequence (P19838 1-433): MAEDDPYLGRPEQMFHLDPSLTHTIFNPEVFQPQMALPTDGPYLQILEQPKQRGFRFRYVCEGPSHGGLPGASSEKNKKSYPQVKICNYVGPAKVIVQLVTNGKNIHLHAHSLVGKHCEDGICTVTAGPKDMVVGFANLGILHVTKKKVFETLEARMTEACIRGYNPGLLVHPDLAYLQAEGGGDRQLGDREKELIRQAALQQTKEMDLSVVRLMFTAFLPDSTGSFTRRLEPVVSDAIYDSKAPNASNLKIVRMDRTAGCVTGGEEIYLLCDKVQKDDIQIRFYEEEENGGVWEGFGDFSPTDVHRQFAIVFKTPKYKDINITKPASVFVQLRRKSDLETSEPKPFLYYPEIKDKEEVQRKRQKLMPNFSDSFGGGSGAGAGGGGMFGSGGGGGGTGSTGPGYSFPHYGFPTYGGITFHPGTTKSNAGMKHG
UniProt O15111, sequence (O15111 whole entry): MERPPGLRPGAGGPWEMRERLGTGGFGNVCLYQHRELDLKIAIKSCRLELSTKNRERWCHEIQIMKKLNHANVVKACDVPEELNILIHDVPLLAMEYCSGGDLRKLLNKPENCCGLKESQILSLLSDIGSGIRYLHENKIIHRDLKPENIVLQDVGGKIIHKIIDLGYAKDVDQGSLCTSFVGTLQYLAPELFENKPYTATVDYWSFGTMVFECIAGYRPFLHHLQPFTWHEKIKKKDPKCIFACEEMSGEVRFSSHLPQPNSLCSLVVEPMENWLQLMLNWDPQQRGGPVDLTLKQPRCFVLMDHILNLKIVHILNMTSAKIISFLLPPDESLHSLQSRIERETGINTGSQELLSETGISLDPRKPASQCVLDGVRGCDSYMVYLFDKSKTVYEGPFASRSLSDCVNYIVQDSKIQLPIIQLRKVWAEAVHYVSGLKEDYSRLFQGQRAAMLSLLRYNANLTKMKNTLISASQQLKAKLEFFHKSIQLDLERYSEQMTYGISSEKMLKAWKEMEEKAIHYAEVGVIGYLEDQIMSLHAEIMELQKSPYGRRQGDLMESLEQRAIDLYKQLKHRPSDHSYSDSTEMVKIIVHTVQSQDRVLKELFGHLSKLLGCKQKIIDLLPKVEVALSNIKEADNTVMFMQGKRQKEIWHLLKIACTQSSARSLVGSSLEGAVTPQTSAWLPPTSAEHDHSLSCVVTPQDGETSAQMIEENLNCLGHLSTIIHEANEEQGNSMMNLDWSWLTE

With melittin (from UniProt P01501), the Kd with IKKα (Homo sapiens) is 4600 nM; in the data set with IKKβ (Homo sapiens), 1.34 nM; with NF-κB p50 (Homo sapiens) it was 1.01 nM.
